Several values for one entry are separate records, joined by “and”; a condition that tells them apart may be missing. Identical values can stand only once. Like-named read-outs stand apart in the source and are kept apart here.
Assays:
[1] = biological target: T1, Human OSM (human, UniProt P13725 26-221); experiment: cell-based or functional assay
T1 sequence: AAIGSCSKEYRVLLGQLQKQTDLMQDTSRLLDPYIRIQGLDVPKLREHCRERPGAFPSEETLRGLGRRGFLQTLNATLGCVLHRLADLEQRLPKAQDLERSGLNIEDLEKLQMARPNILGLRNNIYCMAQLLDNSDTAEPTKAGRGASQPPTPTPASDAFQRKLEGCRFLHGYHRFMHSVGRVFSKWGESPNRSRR

[2] = biological target: T2, Cynomolgus OSM (cynomolgus, UniProt A0A2K5VPC6 26-221); experiment: cell-based or functional assay
T2 sequence: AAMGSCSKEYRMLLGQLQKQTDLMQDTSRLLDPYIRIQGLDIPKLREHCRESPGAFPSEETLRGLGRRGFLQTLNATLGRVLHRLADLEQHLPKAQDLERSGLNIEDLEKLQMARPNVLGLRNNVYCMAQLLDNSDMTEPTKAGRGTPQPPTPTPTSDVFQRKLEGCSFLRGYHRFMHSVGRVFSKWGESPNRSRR

[3] = biological target: T1, Human OSM; experiment: Kinexa solution phase affinity
Description: (§1) Kinexa (Sapidyne Instruments 3200) solution phase affinity was used to determine the overall affinity of anti-OSM antibody H0(huCDRH1)L1 and Humanised 15E10 (an unrelated OSM antibody) to human, cynomolgus macaque, rhesus macaque and marmoset OSM (Table 15). Humanised 15E10 was added for comparison purposes.
(§2) OSM beads were prepared either by adsorption (polymethylmethacrylate beads-PMMA) or amine coupling (NHS-activated sepharose beads). The range of OSM molecules studied necessitated the generation of beads coated with different concentrations of OSM. For the solution phase portion of the assay, a fixed concentration of antibody was incubated with a broad range of OSM concentrations and allowed to reach equilibrium by incubation at r.t. for at least 2 h before analysis proceeded. The OSM beads were then used to determine the amount of free antibody present in the solution phase samples, by means of the free antibody binding to the OSM bead matrix then detected using an appropriate secondary antibody (either anti-human or anti-mouse depending on the construct being tested) labelled with a fluorescent dye. The binding curves where fitted using the Kinexa Pro analysis software inherent to the machine. Multiple runs using varying starting concentrations of antibody were then compiled and analysed using the n-curve analysis software to give a more accurate determination of affinity.

[4] = biological target: T2, Cynomolgus OSM; experiment: Kinexa solution phase affinity
Description: as §1, §2

[5] = biological target: T3, Marmoset OSM (marmoset); experiment: Kinexa solution phase affinity
T3 construct: also called Marm OSM
Description: as §1, §2

[6] = biological target: T4, Rhesus OSM (rhesus macaque, UniProt F7GF43 26-221); experiment: Kinexa solution phase affinity
T4 construct: also called rhesus macaque OSM
T4 sequence: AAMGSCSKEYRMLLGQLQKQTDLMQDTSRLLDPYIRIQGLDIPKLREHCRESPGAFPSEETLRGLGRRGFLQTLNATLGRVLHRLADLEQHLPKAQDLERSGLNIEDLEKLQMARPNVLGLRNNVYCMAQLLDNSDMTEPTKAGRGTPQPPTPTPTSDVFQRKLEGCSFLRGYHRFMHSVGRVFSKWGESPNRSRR
Description: as §1, §2

[7] = biological target: T1, Human OSM; experiment: cell-based or functional assay; remark: listed apart in the source
[8] = biological target: T1, Human OSM; experiment: cell-based or functional assay; remark: listed apart in the source
[9] = biological target: T1, Human OSM; experiment: cell-based or functional assay; remark: listed apart in the source
[10] = biological target: T1, Human OSM; experiment: cell-based or functional assay; remark: listed apart in the source
[11] = biological target: T1, Human OSM; experiment: cell-based or functional assay; remark: listed apart in the source
[12] = biological target: T1, Human OSM; experiment: cell-based or functional assay; remark: listed apart in the source
[13] = biological target: T1, Human OSM; experiment: cell-based or functional assay; remark: listed apart in the source
[14] = biological target: T1, Human OSM; experiment: cell-based or functional assay; remark: listed apart in the source
[15] = biological target: T1, Human OSM; experiment: BIAcore kinetics, purified antibody
[16] = biological target: T2, Cynomolgus OSM; experiment: BIAcore kinetics, purified antibody
[17] = biological target: T1, Human OSM; experiment: BIAcore kinetics, purified antibody; remark: listed apart in the source
[18] = biological target: T2, Cynomolgus OSM; experiment: BIAcore kinetics, purified antibody; remark: listed apart in the source
[19] = biological target: T5, Endogenous human OSM (neutrophil-derived) (human, UniProt P13725 26-221, limits assumed); experiment: gp130 ELISA with endogenous neutrophil-derived human OSM
T5 construct: Native OSM generated from GM-CSF stimulation of healthy human neutrophils; also called native OSM; endogenous OSM
T5 sequence: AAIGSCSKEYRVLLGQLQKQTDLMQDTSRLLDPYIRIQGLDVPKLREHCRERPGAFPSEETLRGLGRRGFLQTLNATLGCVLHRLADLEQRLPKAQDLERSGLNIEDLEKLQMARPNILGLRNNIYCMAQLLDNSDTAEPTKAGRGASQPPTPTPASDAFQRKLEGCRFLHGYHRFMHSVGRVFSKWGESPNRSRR

[20] = biological target: T1, Human OSM; experiment: BIAcore kinetics
[21] = biological target: T2, Cynomolgus OSM; experiment: BIAcore kinetics
[22] = biological target: T1, Human OSM; experiment: cell-based or functional assay; remark: listed apart in the source
[23] = biological target: T2, Cynomolgus OSM; experiment: cell-based or functional assay; remark: listed apart in the source
[24] = biological target: T1, Human OSM; experiment: cell-based or functional assay; remark: listed apart in the source
[25] = biological target: T2, Cynomolgus OSM; experiment: cell-based or functional assay; remark: listed apart in the source
[26] = biological target: T3, Marmoset OSM; experiment: cell-based or functional assay
[27] = biological target: T1, Human OSM; experiment: BIAcore kinetics, purified antibody; remark: listed apart in the source
[28] = biological target: T1, Human OSM; experiment: BIAcore kinetics, transfection supernatant
[29] = biological target: T1, Human OSM; experiment: human gp130 ELISA, inhibition of OSM binding to gp130
[30] = biological target: T2, Cynomolgus OSM; experiment: as above
[31] = biological target: T5, Endogenous human OSM …; experiment: gp130 ELISA with endogenous neutrophil-derived human OSM; remark: listed apart in the source
[32] = biological target: T1, Human OSM; experiment: direct ELISA, human OSM coated at 1 µg/ml, detection with anti-human IgG
Description: Both the 10G8 and 9G2 chimaeras successfully bound to human OSM, to a greater extent than 15E10chimera (15E10c) (FIG. 11). This was a direct ELISA where human OSM was coated at 1 μg/ml and bound antibodies detected using anti-human IgG.

B1: 15E10h, non-competitive anti-OSM humanised antibody (antibody, human IgG1, kappa, V domains shown)
VH: QVQLVESGGGVVQPGRSLRLSCAASGFSLTNYGVHWVRQAPGKGLEWVAVIWRGGSTDYNAAFMSRFTISKDNSKNTLYLQMNSLRAEDTAVYYCAKSPNSNFYWYFDVWGRGTLVTVSS
VL: EIVLTQSPATLSLSPGERATLSCSGSSSVSYMYWYQQKPGQAPRLLIEDTSNLASGIPARFSGSGSGTDYTLTISNLEPEDFAVYYCQQWSSYPPTFGQGTKLEIKR
notes: also called Humanised 15E10; humanised 15E10
B1 was tested, and the “KB cell neutralisation assay, mean IC50” value [1] was 0.0391 µg/ml and 261 pM, the “KB cell neutralisation assay, mean IC50” value [2] was 0.0054 µg/ml and 36 pM and the Kd [3] was 727 pM. The Kd [4] was 102 pM, the Kd [5] was 6100 pM and the Kd [6] was 102 pM. For the same binder, the “IC50 (read off the curve); IL-6 release from HFLS-RA cells stimulated with 0.3 ng/ml human OSM” value [7] was roughly 100 pM, the “IC50 (read off the curve); IL-6 release from HFLS-RA cells stimulated with 3 ng/ml human OSM” value [8] was roughly 2000 pM and the “IC50 (read off the curve); MCP-1 release from HFLS-RA cells stimulated with 0.3 ng/ml human OSM” value [9] was roughly 200 pM. The “IC50 (read off the curve); MCP-1 release from HFLS-RA cells stimulated with 3 ng/ml human OSM” value [10] was roughly 2000 pM, the “IC50 (read off the curve); MCP-1 release from normal human lung fibroblasts stimulated with 3 ng/ml OSM” value [11] was roughly 1 µg/mL and the “IC50 (read off the curve); MCP-1 release from IPF human lung fibroblasts stimulated with 3 ng/ml OSM” value [12] was roughly 2 µg/mL. The “IC50 (read off the curve); IL-6 release from normal human lung fibroblasts stimulated with 3 ng/ml OSM” value [13] was roughly 0.6 µg/mL, the “IC50 (read off the curve); IL-6 release from IPF human lung fibroblasts stimulated with 3 ng/ml OSM” value [14] was roughly 1 µg/mL and the Kd [15] was 1430 pM. It also gave a koff [15] of 0.000615 s⁻¹, a kon [15] of 429000 M⁻¹ s⁻¹ and a Kd [16] of 590 pM. It also gave a koff [16] of 0.00031 s⁻¹, a kon [16] of 526000 M⁻¹ s⁻¹ and a Kd [17] of 882 pM. For the same binder, the koff [17] was 0.000649 s⁻¹, the kon [17] was 736000 M⁻¹ s⁻¹ and the Kd [18] was 640 pM. The koff [18] was 0.000324 s⁻¹, the kon [18] was 507000 M⁻¹ s⁻¹ and the IC50 [19] was 0.076 µg/mL and 0.507 nM.

B2: 10G8 chimaera (antibody, human IgG1, kappa, V domains shown)
VH: EMQLVESGEGLVEPGGSLKLSCAASGFTFSNYAMSWVRQTPEKSLEWVATISDGGSFTYYLDNVRGRFTISRDNAKNNLYLQMSHLKSDDTAMYYCARDVGHTTFWYFDVWGSGTLVTVSS
VL: DIVLTQSPVFLVVSLGQRATISCRASKSVSAAGYNFMHWYQQKPGQPPKVLIKYASNLESGVPARFSGSGSGTDFTLNIHPVEEEDAVTYYCLHSREFPFTFGGGTNLEIKR
notes: Mouse V regions on human gamma 1 wild type and human kappa constant regions; the entries called VH/VL domain (chimera) are full chains; also called 10G8 chimera; 10G8 Chimæra
With B2 the Kd [20] was 654 pM, the koff [20] was 0.000152 s⁻¹ and the kon [20] was 233000 M⁻¹ s⁻¹. The Kd [21] was 480 pM, the koff [21] was 0.000114 s⁻¹ and the kon [21] was 237000 M⁻¹ s⁻¹. For the same binder, the “KB cell neutralisation assay, mean IC50” value [22] was 0.021 µg/ml and 140 pM, the “KB cell neutralisation assay, mean IC50” value [23] was 0.008 µg/ml and 53 pM and the “KB cell neutralisation assay, mean IC50” value [24] was 0.022 µg/ml and 144 pM. The “KB cell neutralisation assay, mean IC50” value [25] was 0.008 µg/ml and 100 pM, the “KB cell neutralisation assay, mean IC50” value [1] was 0.0052 µg/ml and 35 pM and the “KB cell neutralisation assay, mean IC50” value [2] was 0.0011 µg/ml and 7 pM. The “KB cell neutralisation assay, mean IC50” value [26] was 0.0271 µg/ml and 181 pM, the Kd [27] was 407 pM and the koff [27] was 0.000105 s⁻¹. The kon [27] was 257000 M⁻¹ s⁻¹, the Kd [15] was 518 pM and the koff [15] was 0.000125 s⁻¹. It also gave a kon [15] of 241000 M⁻¹ s⁻¹, a Kd [16] of 394 pM and a koff [16] of 9.95e-05 s⁻¹. For the same binder, the kon [16] was 253000 M⁻¹ s⁻¹, the Kd [17] was 184 pM and the koff [17] was 7.87e-05 s⁻¹. The kon [17] was 427000 M⁻¹ s⁻¹, the Kd [18] was 266 pM and the koff [18] was 6.63e-05 s⁻¹. The kon [18] was 250000 M⁻¹ s⁻¹, the Kd [28] was 407 pM and the koff [28] was 0.000103 s⁻¹. The kon [28] was 252000 M⁻¹ s⁻¹, the IC50 [29] was 0.037 µg/mL and 0.247 nM and the IC50 [30] was 0.016 µg/mL and 0.107 nM. The IC50 [31] was 0.009 µg/mL and 0.06 nM, the IC50 [19] was 0.0091 µg/mL and 0.061 nM and the “EC50 (read off the curve)” value [32] was roughly 200 pM.

Source: patent US20130251724A1 (GlaxoSmithKline, published 2013)
